In paper PMC10827111 (bioRxiv, 2024):

Columns and labels:
Experiment in all cases: ELISA
[1] = biological target: SARS-CoV-2 S2 subdomain (Sino Biological) (SARS-CoV-2 (Wuhan-Hu-1 reference), UniProt P0DTC2)
[2] = biological target: MERS-CoV S2 subdomain (MERS-CoV, strain ; stand-in …, UniProt K0BRG7)
[3] = biological target: HCoV-OC43 S-2P (HCoV-OC43 (strain ; numbering …, UniProt P36334, stabilised)

Measured: binding result

B1: antibody 54043-5 (IgG) (antibody, V domains shown)
VH: QVQLQESGPGLVKPSQTLSLTCTVSGDSISNSSYYWSWIRQYPSRRLEWIGYIYYNGRTYYNPSLNSRLSISLDTSKNHFSLKLSSLTAADTALYYCARGFLGYCAGGSCFLNWLDPWGQGTLVTVSS
VL: EIIMTQSPATLSVSPGGRATLSCRASQSVSNNLAWYQQKPGQTPRLLIHGASTRATGIPARFSGSGSGTEFTLTISSLQSEDFAVYYCHQYHNWLLTFGGGTKVEIK
binds: all assays above
